Results on 16 sequences are retold here after the DeepSol protein solubility set.

A short description of this data set: soluble on expression in E. coli; label from the status in PepcDB or PDB records.
On to “MSLRVRTPSDDPVASAQIELIKQRINNIELFQNNRQAADSALRLEEGILSNAVNSLHRLREIQIQAGNPSLSEEDRKTLAVEAQALLNQLLDYANTKDSNGSYMFSGSKSLTQPVSLNLSGQYVYNGDSTQRFQAVTTSLLVAVNDTGDNVFMRIPSGNGRFAIRETLTPNTGTASVSSGSVTNEAAFVPDNYTMTFALNSQGNLVVMVSGTLSGNVIPPSGLPDDAPLYQEGSAIGFNGMEMVVSGLPKAGDSFSISPAKNESIFSTVQRMINNLNKPYTSSVEKAATQTENNQLLAQIDSALGHILSVQSDLGARLNQLETAEKANNDYLDISAATLKKLREIDPVAVATELNLQLVNLQAAQLSFTRIQGLSLFNFLEGHHHHHH”, for which the “soluble on expression in E. coli” value is recorded as “soluble”.
In the case of “MSLRWEGALSAGQRKASNAIVVNLKAKTDMLLWAVAGSGKTEMMFEGMDWALRQGFRICVASPRVDVCLELLPRLKEAFPSIDIVCLYGDSKDNYQGEQFVIATTHQLIRFYEAFQVIFIDEVDAFPYAKDPFLEYAVMKARTKEGSTIIITATPEKKWQEECVRGKRNFVKIPGRYHRKKLPVPRTCWIGPWKKNLAKGKITPKLIQWMNDVKKKDQPALIFFPEIDAMNKFANALENKGYASEGHHHHHH” it was “not soluble”.
In the case of “MSLRYTNSHLEDWIENLYKKIDITEPEQINFERIAEALDIRLSFKPVTSFALKHSGIYNICLDSRKSRTEQWYDFAHEFCHIYRHEGDKKTMPATWTDYLDWQSNYFTYHFCIPTCMLRNINLPYIQSHAIENVAWLFKVSPSFAKKRLSIYYRKLTQHLFSQTVTGNLCPPFLEGHHHHHH” it was “not soluble”; in that of “MSLSDDVALPLEFTDAAANKVKSLIADEDNPNLKLRVYITGGGCSGFQYGFTFDDQVNEGDMTIEKQGVGLVVDPMSLQYLVGGSVDYTEGLEGSRFIVTNPNAKSTCGCGSSFSIEGGSHHHHHH”, “soluble”; in that of “MSLSDPNTSGSGVVGESSGVRVAIEGCGHGCLHSIYASVERAAALKGWDGVDLLIIGGDFQAVRNSNDMACMSVPNKYKEIGDFHEYYSGQRTAPYLTIFVGGNHEASNHLFELYYGGWVAPNIYYMGAANVLRFGPLRIAGLSGIWKGRDYRKPHFERLPYNDDDIKSIYHVRELDVRKLLQVRTQIDVGLSHDWPRQIEYCGDWQQLFRAKPLFRRDSQNGTLGSTAAEYVLNRLRPAYWFSAHLHVKFAASVQHGPQEVVPNRQYGLDGASLTSMLSETEEASRQTGYSQAEAEPNAHAVSETGTTEEGHHHHHH”, “soluble”.
With “MSLSDQPVLFSRAAASCRLTLNREDKCHAINEEMIESLDHYLNEIENDTALRLVELTATGDKFFCAGGDIKSWSAYSPLDMGRKWIKRGNDVFNRLRNLPQLTVANLNGHTIGGGIELALCCDIRIARPHAKFSNPEVMLGMVPGWMGIERVLNQVGPVVGRQMLMLGKRLTAQEAQAANLIDEVVEKEQVESWMANQLAQLEKCGPVALAHIKQLILALENKHADYSHQLLAGLMSATQDCQQATHAFAEKAGVSFHNQEGHHHHHH”, the “soluble on expression in E. coli” value was “soluble”.
For “MSLSEFEKYYPKISNLSTKLLDNPELGFKEYQTSKLIEDEIKSISPSIKVEHYLGTGLKVIFDNHKPKTIGIIAEMDDLYQPKHFKANPETGAAHACGHYTQVGIALAMINEIVKAERLKEFGTNLAFIFTPAEEFVDLDWRQEQKAKHKLDYFGGKQEAIKQGLFDHINYCVSVHAIGEEFKQRTVEINCDLAGFNFKYFDFYGEASHAAFAPESGVNAQSIATLFTTALALQRQQIKNPNRIRFNPVVIGENTESINVIPDHVKMGSDLSFFDIKYVQSLMKKFDQAAQGCASALGGKAKITTQVGYLPLHSNREMNALVKDTFLQEDRIPGLIENRGYTMAAGDIGDVGFIMPTIQIGYGGWTGTIHGSDFKLIDPEFVLKIFPEFVFNSTLNISNHLEKIDEYHHTKREYLKALKKMEGEGHHHHHH” the value was “not soluble”; for “MSLSELLDLSFLSEEEKDLILSVLQRDEEVRKADEKRIRRLKNELLEIKRKGAKRGSQHYSDRTCARCQESLGRLSPKTNTCRGCNHLVCRDCRIQESNGTWRCKVCAKEIEMKKATGDWFYDQKVNRFAYRTGSEIIRMSLRHKPAVSKREGHHHHHH”, “not soluble”; for “MSLSETASAENLLGAYLKDRRTRLDAAAFGLSGSRRRTPGLRREEVAQRANISPTWYTWLEQGRGGAPSADVLDRIARALMLTDVEREHLFLIGLGRPPEVRYQASDGVSPRLQRVLDALAFSPALVRTATWDVVAWNRAATAVLTDYGAIPPGQRNILRFIFCDPRVRAAQYDWDSVARFVVAAFRADAARAGAVSHVADFVDELCRTSPEFAALWRDNDVRHHGDGTKRLRHPVHGTMSFEYSSFNVEGRSDLSMIVYNPATPEDADRIRTLLAERADEGHHHHHH”, “soluble”.
For “MSLSFLYFNDNSKIANAPLKNRFEKTQKESLIIKNNNEDKKAKSKPKFYLIIDDVGYDEFMLEQFIKLNLKITYAIIPFLPKSMSLYKKLKNANKTVIIHFPMQSKHRNSIEKFHINIKDKKEEIHKKIEKAFKKYPDAKIMNNHMGSLITSNKDLMKIILEKLKEIDRYFFDSVTIAGSVPEIIGKEIGVKVEKRDVFLDSKDTEESVTKELEKAKNIARKNGMVKVIGHIWSKNTLKVLKKEGPDLNQEFEFDNLLNLYEETIREGHHHHHH”, the “soluble on expression in E. coli” value is given as “not soluble”.
For “MSLSFRFAFRPYQRRLRQPLRTARDAQITVRLGIWLRLETDTEVRWGEIAPWPSFGSETLAEAIAFCEAFPPDPEWEDLATAPDSLPACQFGFGCLRESNATDFLPTSAVLLPAGAAALTAIATASPATTYKWKIGLDLESELDLLPQLDRLLPSAAKLRLDANGGLTKAQADRLLQVLTAINERRSGRIEWLEQPLDPSQVDDLLQLVQDWPLVAIALDESVSQLSSLQFWQAQGWPGLYVLKPAIAGWPQTVRQFCQVHHLPVVVSSMFESPIGWRAVAAIAAQLGRADQAQGLGTTAWFTDDWESKTAAALWQHPEGHHHHHH” the value was “not soluble”; for “MSLSGLPESTLRYYEQIGIIDPIARDPSSGHRVYSDKDIESLTTIACLAATGMPLESMREYLKNRFDGPEGARRQIELLDAQSLRLAANAEALRIQQAYVSLKSLYWRAIAEGHEDEANRILEENKDVIENVKKQPGKGAIAREGHHHHHH”, “soluble”.
In the case of “MSLSHFDSQAPTWDENPKRSLMINAIAEALRSHLPLREDFRVMDYGCGTGELSLAILPWVGYVEGIDTSKGMIDRFSQKIQERNLPNIKAKFMRAGEALEGEFDLVVCNMVLHHIPDPLLYIRQFESSIRPGGHLAIIDLDKEDGSFHPQGTPGVFHQGFSYEEIRAWLDYCYLEERLHHPSLHLIQKNEREYPLTLTLAQKPHEGHHHHHH” it was “soluble”.
In the case of “MSLSHNSSLPPFTASGFAEDQGAVRIWRKDSGDNVHFLAVFSPWRSGDTTTREYRWQGDNLTLININVYSKPPVNIRARFDDRGDLSFMQRESDGEKQQLSNDQIDLYRYRADQIRQISDALRQGRVVLRQGRWHAMEQTVTTCEGQTIKPDLDSQAIAHIERRQSRSSVDVSVAWLEAPEGSQLLLVANSDFCRWQPNEKTFEGHHHHHH” it was “not soluble”.
In the case of “MSLSIPDRRAKLDRAHGVLSIRRQCRLLGLSRSSVYRTPLPANDDDLALMRRIDELFTARPFLGSRRMAWLISEDGVRINRKRVQRLMRKMGIEALGPKPRTSKPAPGHRIYPYLLRAMTIDRPNQVWATDITYIPMGRGFLYLVAVIDWASRAVLSWRLSNTMDVSFCVDALEEALSRFGKPQIFNTDQGSQFTSAAFTSVLEAAGIQISMDGRGRWMDNVFIERLWRSLKHEDVYLKFNEGHHHHHH”, the “soluble on expression in E. coli” value is “not soluble”.
“MSLSISFNNIPSALRVPLTYIEFDNTKAVSGPPTALHKVLMLGTKLATGSAKAGEAVRVSAYAQAKTLFGRGSQLAEMVKTFKAHNSTLDLWVLPLDEAPSGAKATGSVQITGTATQAGTFSLMIAGNNYKTAVTSGDTADVVAGKLQKLIAADQDVPVVATVAGNTITLTCRFKGETGNEIDLRCNYYSGEAFPEGLKATITDMKNGAVNPDMSVAITGLGAEWWNYIINPFTDTESLNLLRADLVKRWGPLKQIDGICFMAKRGTHAEVTTFAEQRNDYLFSLLATHKAPQPAYLWASAYAAVVAGSLAIDPARPVQTLVMDLLPPSMSDRWDLPERNTLLYSGVSTYTVNAGSQPQVEAAITMYRKNAFGDNDESYLYVETIATLSYLRYAIRSRITQKFPRHKLANDGTRIGPGQAIVTPKIIRNELLALFTELEFAGLVEDFEQFNQTLFVERDSNNPCRVNVLSNENLVNQFRIYAHAIQFILEGHHHHHH”: the “soluble on expression in E. coli” value is recorded as “soluble”.
